Assay results as given in publication PMC9798004 (Frontiers in Psychiatry, 2022).
No end group written: not given here.

Tests used:
Assay in all cases: PathHunter β-arrestin assay
Assay type in all cases: cell-based
[1] = target: T1, NPBWR1 (Homo sapiens, UniProt P48145); details: screen, control agonist; CHO, RT, 2HR
T1 construct: purchased Eurofins DiscoverX (PathHunter gpcrMAX)
T1 sequence (P48145 1-328): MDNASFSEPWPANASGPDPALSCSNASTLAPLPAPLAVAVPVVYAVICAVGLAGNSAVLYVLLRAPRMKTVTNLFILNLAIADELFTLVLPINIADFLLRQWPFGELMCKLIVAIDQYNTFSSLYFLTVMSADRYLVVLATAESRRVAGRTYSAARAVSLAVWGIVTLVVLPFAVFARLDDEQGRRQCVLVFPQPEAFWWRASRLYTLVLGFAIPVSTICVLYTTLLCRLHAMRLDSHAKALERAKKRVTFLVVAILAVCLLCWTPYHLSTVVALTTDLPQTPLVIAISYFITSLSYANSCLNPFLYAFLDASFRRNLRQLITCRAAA

[2] = target: T2, NPBWR2 (Homo sapiens, UniProt P48146); details: screen, control agonist; CHO, 37C, 2HR
T2 construct: purchased Eurofins DiscoverX (PathHunter gpcrMAX)
T2 sequence (P48146 whole entry): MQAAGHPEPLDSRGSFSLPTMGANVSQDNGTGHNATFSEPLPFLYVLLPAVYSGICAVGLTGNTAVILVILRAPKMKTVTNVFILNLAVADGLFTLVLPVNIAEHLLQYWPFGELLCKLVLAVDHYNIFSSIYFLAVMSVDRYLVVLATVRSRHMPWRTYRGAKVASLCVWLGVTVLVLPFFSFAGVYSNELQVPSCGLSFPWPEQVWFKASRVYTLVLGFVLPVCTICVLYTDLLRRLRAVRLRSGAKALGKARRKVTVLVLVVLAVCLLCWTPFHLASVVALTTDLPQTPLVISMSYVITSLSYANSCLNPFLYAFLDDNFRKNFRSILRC

[3] = target: T3, MCHR2 (Homo sapiens, UniProt Q969V1); details: screen, control agonist; U2OS, 37C, 2HR
T3 construct: purchased Eurofins DiscoverX (PathHunter gpcrMAX)
T3 sequence (Q969V1 whole entry): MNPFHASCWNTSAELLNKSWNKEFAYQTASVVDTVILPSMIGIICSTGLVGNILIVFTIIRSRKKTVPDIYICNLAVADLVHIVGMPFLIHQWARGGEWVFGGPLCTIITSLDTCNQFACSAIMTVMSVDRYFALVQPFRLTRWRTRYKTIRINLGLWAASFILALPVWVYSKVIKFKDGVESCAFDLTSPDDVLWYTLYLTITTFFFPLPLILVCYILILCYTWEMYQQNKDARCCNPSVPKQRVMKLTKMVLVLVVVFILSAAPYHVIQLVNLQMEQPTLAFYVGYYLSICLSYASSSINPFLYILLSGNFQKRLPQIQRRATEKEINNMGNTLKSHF

[4] = target: UTR2 (Homo sapiens, UniProt Q9UKP6); details: follow-up assays, control antagonist
Chain of UTR2 (Q9UKP6 whole entry): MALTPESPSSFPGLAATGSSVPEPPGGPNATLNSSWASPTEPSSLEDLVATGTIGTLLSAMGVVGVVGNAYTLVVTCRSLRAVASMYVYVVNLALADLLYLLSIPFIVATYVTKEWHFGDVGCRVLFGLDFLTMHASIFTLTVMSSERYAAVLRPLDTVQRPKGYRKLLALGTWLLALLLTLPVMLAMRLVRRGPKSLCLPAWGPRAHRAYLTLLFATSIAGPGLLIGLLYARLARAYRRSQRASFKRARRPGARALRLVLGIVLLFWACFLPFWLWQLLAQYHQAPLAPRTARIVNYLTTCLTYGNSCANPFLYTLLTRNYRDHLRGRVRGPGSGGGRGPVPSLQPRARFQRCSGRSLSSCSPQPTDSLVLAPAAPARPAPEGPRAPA

[5] = target: T4, GLP2R (Homo sapiens, UniProt O95838); details: control agonist
T4 sequence (O95838 1-553): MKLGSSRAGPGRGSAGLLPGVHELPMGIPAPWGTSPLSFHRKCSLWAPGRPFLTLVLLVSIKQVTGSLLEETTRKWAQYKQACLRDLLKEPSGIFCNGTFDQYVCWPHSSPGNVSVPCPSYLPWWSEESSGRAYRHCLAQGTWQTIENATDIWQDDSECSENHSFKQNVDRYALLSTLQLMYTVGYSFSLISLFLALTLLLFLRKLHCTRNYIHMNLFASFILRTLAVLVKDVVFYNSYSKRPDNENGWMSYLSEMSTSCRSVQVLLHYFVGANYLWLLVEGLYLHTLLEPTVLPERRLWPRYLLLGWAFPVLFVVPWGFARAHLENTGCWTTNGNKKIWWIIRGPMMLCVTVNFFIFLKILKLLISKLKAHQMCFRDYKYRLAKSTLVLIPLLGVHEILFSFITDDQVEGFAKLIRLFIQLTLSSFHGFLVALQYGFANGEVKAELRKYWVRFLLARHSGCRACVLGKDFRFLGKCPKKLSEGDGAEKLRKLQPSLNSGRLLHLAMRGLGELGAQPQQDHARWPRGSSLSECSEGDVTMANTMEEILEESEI
Protocol: (§1) Follow up experiments were prioritized based on the difference between S/N and CoV. Targets with a >5-fold difference between S/N and CoV were investigated for their potential contribution to the AMB-FUBINACA toxidrome with 10-point concentration-response curves generated in technical replicate (range 1.5–30 μM) using the EC80 of the relevant agonist, where applicable in antagonist mode. Simultaneous agonist and antagonist curves were run in parallel to ensure reliability of the assay (see Supplementary Table 2), with both RC50 and signal to background aligning with historical averages, and Z' >0.5. RC50 was estimated using a four-parameter fit (CBIS Data Analysis Suite, ChemInnovation, San Diego, CA) on normalized data.

[6] = target: T5, MLNR (Homo sapiens, UniProt O43193); details: screen, control agonist; CHO, 37C, 2HR
T5 construct: purchased Eurofins DiscoverX (PathHunter gpcrMAX)
T5 sequence (O43193 whole entry): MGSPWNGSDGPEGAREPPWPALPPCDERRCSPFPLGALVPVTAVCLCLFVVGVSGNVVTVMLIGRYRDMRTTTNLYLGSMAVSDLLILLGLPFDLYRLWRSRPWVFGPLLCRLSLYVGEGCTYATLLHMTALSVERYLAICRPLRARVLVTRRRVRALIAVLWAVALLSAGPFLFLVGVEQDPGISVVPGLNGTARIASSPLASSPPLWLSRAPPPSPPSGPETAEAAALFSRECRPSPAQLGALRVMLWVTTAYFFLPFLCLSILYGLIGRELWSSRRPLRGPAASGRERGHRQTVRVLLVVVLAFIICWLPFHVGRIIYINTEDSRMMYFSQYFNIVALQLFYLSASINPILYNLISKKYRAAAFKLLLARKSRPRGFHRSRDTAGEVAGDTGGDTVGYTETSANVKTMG

[7] = target: T6, GRPR (Homo sapiens, UniProt P30550); details: control agonist
T6 construct: purchased Eurofins DiscoverX (PathHunter gpcrMAX)
T6 sequence (P30550 whole entry): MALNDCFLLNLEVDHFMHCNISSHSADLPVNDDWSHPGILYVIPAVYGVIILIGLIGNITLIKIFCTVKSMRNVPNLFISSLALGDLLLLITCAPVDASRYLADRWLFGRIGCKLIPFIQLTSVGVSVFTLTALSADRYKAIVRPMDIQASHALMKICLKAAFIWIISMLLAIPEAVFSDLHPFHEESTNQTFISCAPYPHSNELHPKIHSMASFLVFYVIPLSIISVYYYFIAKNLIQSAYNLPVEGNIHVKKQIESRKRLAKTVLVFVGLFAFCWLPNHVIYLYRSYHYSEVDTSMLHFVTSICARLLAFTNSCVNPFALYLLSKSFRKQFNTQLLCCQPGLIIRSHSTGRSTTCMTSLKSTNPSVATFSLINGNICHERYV
Protocol: as §1

[8] = target: T7, MTNR1A (Homo sapiens, UniProt P48039); details: screen, control agonist; CHO, 37C, 2HR
T7 construct: purchased Eurofins DiscoverX (PathHunter gpcrMAX)
T7 sequence (P48039 whole entry): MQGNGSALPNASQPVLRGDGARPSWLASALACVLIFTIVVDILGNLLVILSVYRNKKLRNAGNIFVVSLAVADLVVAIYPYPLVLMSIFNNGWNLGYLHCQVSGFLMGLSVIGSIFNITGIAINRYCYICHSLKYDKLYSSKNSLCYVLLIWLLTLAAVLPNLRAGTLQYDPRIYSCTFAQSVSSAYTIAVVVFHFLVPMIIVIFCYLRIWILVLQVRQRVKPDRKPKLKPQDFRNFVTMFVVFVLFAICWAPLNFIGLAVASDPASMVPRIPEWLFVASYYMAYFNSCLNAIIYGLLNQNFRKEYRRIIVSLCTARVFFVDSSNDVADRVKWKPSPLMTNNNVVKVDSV

[9] = target: T8, NMU1R (Homo sapiens, UniProt Q9HB89); details: screen, control agonist; U2OS, 37C, 2HR
T8 construct: purchased Eurofins DiscoverX (PathHunter gpcrMAX)
T8 sequence (Q9HB89 1-426): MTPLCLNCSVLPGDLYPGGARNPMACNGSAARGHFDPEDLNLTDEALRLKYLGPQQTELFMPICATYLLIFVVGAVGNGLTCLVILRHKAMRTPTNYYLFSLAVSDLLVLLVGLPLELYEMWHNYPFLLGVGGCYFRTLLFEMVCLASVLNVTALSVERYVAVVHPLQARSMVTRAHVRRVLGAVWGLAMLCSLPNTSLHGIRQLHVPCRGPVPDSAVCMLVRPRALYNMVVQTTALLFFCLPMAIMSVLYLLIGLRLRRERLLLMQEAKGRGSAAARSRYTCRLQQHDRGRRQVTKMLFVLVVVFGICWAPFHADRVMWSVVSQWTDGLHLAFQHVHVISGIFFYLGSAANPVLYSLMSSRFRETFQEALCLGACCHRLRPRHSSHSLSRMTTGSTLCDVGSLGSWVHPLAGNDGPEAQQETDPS

[10] = target: T9, MRGPRX2 (Homo sapiens, UniProt Q96LB1); details: control agonist
T9 sequence (Q96LB1 1-330): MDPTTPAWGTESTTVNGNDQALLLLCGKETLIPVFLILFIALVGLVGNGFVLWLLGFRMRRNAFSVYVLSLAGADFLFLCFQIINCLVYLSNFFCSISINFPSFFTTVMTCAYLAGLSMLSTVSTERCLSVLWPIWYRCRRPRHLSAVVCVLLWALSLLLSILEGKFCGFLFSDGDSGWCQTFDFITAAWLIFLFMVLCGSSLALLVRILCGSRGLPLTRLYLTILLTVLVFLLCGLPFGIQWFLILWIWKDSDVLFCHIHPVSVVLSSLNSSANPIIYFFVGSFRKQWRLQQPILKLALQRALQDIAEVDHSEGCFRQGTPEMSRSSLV
Protocol: as §1

[11] = target: T10, CCR10 (Homo sapiens, UniProt P46092); details: control agonist
T10 sequence (P46092 1-362): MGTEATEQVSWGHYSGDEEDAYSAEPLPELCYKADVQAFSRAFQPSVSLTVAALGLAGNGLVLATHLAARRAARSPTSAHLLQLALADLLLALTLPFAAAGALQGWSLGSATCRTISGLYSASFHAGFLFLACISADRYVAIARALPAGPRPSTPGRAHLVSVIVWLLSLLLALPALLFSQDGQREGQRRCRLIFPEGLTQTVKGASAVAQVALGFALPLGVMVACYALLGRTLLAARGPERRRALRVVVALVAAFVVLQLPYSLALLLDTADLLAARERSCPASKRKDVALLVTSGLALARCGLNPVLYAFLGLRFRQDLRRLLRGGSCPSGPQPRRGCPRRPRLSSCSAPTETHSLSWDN
Protocol: as §1

[12] = follow-up concentration-response assays

Neuropeptide W23 (WYKHVASPRYHTVGRAAGLLMGL; Neuropeptide W-23; UniProt Q8N729 33-55, looked up) [control agonist]
EC80 [1]: 8.1 nM | EC80 [2]: 4.04 nM

MCH: control agonist for MCHR1 and MCHR2
EC80 [3]: 59.3 nM

COc1cc(Br)c(S(=O)(=O)Nc2ccc(Cl)c(O[C@@H]3CCN(C)C3)c2)cc1OC [SB 657510]
IC50 [4]: 122 nM

GLP II (1-33)
EC80 [5, 12]: 2.96 nM | EC80 ([5]; screen, CHO, 37C, 2HR): 8.88 nM

Motilin
EC80 [6]: 5.69 nM

GRP: control agonist for GRPR (VPLPAGGGTVLTKMYPRGNHWAVGHLM; not fully specified (C-terminus); UniProt P07492 24-50, looked up)
EC80 [7, 12]: 1.95 nM | EC80 ([7]; screen, U20S, 37C, 2HR): 5.85 nM

COc1ccc2[nH]c(I)c(CCNC(C)=O)c2c1 [2-Iodomelatonin]
EC80 [8]: 2.77 nM

Neuromedin U-25 (FRVDEEFQSPFASQSRGYFLFRPRN; ends and bridges not checked; UniProt P48645 142-166, looked up) [control agonist]
EC80 [9]: 3.63 nM

Cortistatin 14 (PCKNFFWKTFSSCK; ends and bridges not checked; cysteine pairing not given here; UniProt Q62949 99-112, looked up) [control agonist]
EC80 [10, 12]: 737.5 nM | EC80 ([10]; screen, CHO, 37C, 2HR): 738 nM

B1: CCL27: control agonist (protein, UniProt Q9Y4X3 25-112, looked up)
C-C motif chemokine 27: FLLPPSTACCTQLYRKPLSDKLLRKVIQVELQEADGDCHLQAFVLHLAQRSICIHPQNPSLSQWFEHQERKLHGTLPKLNFGMLRKMG
EC80 [11, 12]: 90.49 nM | EC80 ([11]; screen, U2OS, 37C, 2HR): 30.2 nM
